From patent publication US20190083585 come the findings set out here.

Changes are numbered by the printed parent chain. Names and notes keep the numbering of the source.

Sequences and labels used below:
B1: KumaMax™ (Kumamolisin-As V119D, S262K, N291D, D293T, G319S, D358G, D368H) (protein)
chain: AAPTAYTPLDVAQAYQFPEGLDGQGQCIAIIELGGGYDEASLAQYFASLGVPAPQVVSVSVDGASNQPTGDPKGPDGEVELDIEVAGALAPGAKFAVYFAPDTTAGFLDAITTAIHDPTLKPSVVSISWSGPEDSWTSAAIAAMNRAFLDAAALGVTVLAAAGDSGSTGGEQDGLYHVHFPAASPYVLACGGTRLVASGGRIAQETVWNDGPDGGATGGGVSRIFPLPAWQEHANVPPSANPGASSGRGVPDLAGNADPATGYEVVIDGEATVIGGTSAVAPLFAALVARINQKLGKAVGYLNPTLYQLPADVFHDITEGNNDIANRAQIYQAGPGWDPCTGLGSPIGVRLLQALLPSASQPQPGSTENLYFQSGALEHHHHHH
B2: Kumamolisin-As (wild type) (protein)
chain: B1 chain with K73S, D102N, T104D, S130G, G169D, H179D
B3: Kumamolisin-As N291D, Q361D (protein)
chain: B1 chain with K73S, T104D, S130G, G169D, Q172D, H179D
B4: Kumamolisin-As N291D, D293A, Q361D, D358N (protein)
chain: B1 chain with K73S, T104A, S130G, G169N, Q172D, H179D
B5: Kumamolisin-As G319S, D368S (protein)
chain: B1 chain with K73S, D102N, T104D, G169D, H179S
B6: Kumamolisin-As N291D, D358N (protein)
chain: B1 chain with K73S, T104D, S130G, G169N, H179D
B7: Kumamolisin-As N291D, D293A, G319S, D358G, Q361D, D368H (protein)
chain: B1 chain with K73S, T104A, Q172D
B8: Kumamolisin-As D358G (protein)
chain: B1 chain with K73S, D102N, T104D, S130G, H179D
B9: Kumamolisin-As N291D, Q361D, D358G (protein)
chain: B1 chain with K73S, T104D, S130G, Q172D, H179D
B10: Kumamolisin-As S262G, T292S, N291D, G319S, D358G, D368H (protein)
chain: B1 chain with K73G, T103S, T104D
B11: Kumamolisin-As N291D, D293A, G319S, S354N, D358G, Q361D, D368H (protein)
chain: B1 chain with K73S, T104A, S165N, Q172D
B12: Kumamolisin-As G319S, S354N, D358G, D368H (protein)
chain: B1 chain with K73S, D102N, T104D, S165N
B13: Kumamolisin-As N291D, D293A (protein)
chain: B1 chain with K73S, T104A, S130G, G169D, H179D
B14: Kumamolisin-As N291D, D293A, D358G, Q361D (protein)
chain: B1 chain with K73S, T104A, S130G, Q172D, H179D
B15: Kumamolisin-As N291D, G319S, D358G, Q361D, D368H (protein)
chain: B1 chain with K73S, T104D, Q172D
B16: Kumamolisin-As N291D, G319S, D358G, D368H (protein)
chain: B1 chain with K73S, T104D
B17: Kumamolisin-As N291D, G319S, S354N, D358G, D368H (protein)
chain: B1 chain with K73S, T104D, S165N
B18: Kumamolisin-As S262K, D293N, N291D, G319S, D358G, D368H (protein)
chain: B1 chain with T104N
B19: Kumamolisin-As D358G, D368H (protein)
chain: B1 chain with K73S, D102N, T104D, S130G
B20: Kumamolisin-As N291D, G319S, S354N, D358G, Q361D, D368H (protein)
chain: B1 chain with K73S, T104D, S165N, Q172D
B21: Kumamolisin-As D293T, N291D, G319S, D358G, D368H (protein)
chain: B1 chain with K73S
B22: Kumamolisin-As N291D, D293A, D358N (protein)
chain: B1 chain with K73S, T104A, S130G, G169N, H179D
B23: Kumamolisin-As D293A (protein)
chain: B1 chain with K73S, D102N, T104A, S130G, G169D, H179D
B24: Kumamolisin-As N291D (protein)
chain: B1 chain with K73S, T104D, S130G, G169D, H179D
B25: Kumamolisin-As T357A (protein)
chain: B1 chain with K73S, D102N, T104D, S130G, T168A, G169D, H179D
B26: Kumamolisin-As D358N (protein)
chain: B1 chain with K73S, D102N, T104D, S130G, G169N, H179D
B27: Kumamolisin-As S354N, D358G, D368H (protein)
chain: B1 chain with K73S, D102N, T104D, S130G, S165N
B28: Kumamolisin-As T292S, N291D, G319S, D358G, D368H (protein)
chain: B1 chain with K73S, T103S, T104D
B29: Kumamolisin-As G319S, D358G, D368H (protein)
chain: B1 chain with K73S, D102N, T104D

One data set concerns the target T1, Suc-APE-pNA.
T1 chain: APE
Consider B1, for which the Catalytic Efficiency (kcat/KM) came to 1.4 M⁻¹ s⁻¹ and the “fold decrease in activity compared to its activity on the PQ substrate” value is “roughly 5-fold decrease in activity on the PE peptide substrate compared to its activity on the PQ substrate”.
Consider B2, for which the Catalytic Efficiency (kcat/KM) stood at 4 M⁻¹ s⁻¹.

The target in a further data set is T2, fluorescently quenched α-gliadin hexapeptide analogue QXL520-PQPQLP-K(5-FAM)-NH2.
T2 chain: PQPQLP
As for B3, the Fold Change in Activity of PQ Hydrolysis Relative to Wild Type Kumamolysin-As stood at 7.5 fold.
On the same count and under the same terms, with B4 the figure was 14.8 fold; with B5, 2 fold.
The same measure, in the same setting: with B6 the figure was 18.9 fold.
Still for that read-out and setting: with B7 the figure was 40.9 fold.
Take B1: the Catalytic Efficiency (kcat/KM) came out at 568 M⁻¹ s⁻¹ and the Fold Change in Activity of PQ Hydrolysis Relative to Wild Type Kumamolysin-As was 120 fold.
B8: the Fold Change in Activity of PQ Hydrolysis Relative to Wild Type Kumamolysin-As was determined as 3 fold.
B9 came in with a Fold Change in Activity of PQ Hydrolysis Relative to Wild Type Kumamolysin-As of 20 fold.
The same measure, in the same setting: the value for B10 was 29 fold; that for B11 was 58 fold.
Still for that read-out and setting: with B12 the figure was 5 fold; with B13, 15 fold.
Still for that read-out and setting: the value for B14 was 15 fold; that for B15 was 23.1 fold; that for B16 was 93 fold.
Regarding B17, the Fold Change in Activity of PQ Hydrolysis Relative to Wild Type Kumamolysin-As was determined as 54.6 fold.
The same measure, in the same setting: the value for B18 was 62 fold.
Still for that read-out and setting: with B19 the figure was 6 fold; with B20, 50 fold.
On to B21, for which the Fold Change in Activity of PQ Hydrolysis Relative to Wild Type Kumamolysin-As was determined as 58 fold.
Still for that read-out and setting: with B22 the figure was 24 fold.
B2 registered a Catalytic Efficiency (kcat/KM) of 4.9 M⁻¹ s⁻¹ and a Fold Change in Activity of PQ Hydrolysis Relative to Wild Type Kumamolysin-As of 1 fold.
B23 returned a Fold Change in Activity of PQ Hydrolysis Relative to Wild Type Kumamolysin-As of 3 fold.
On the same count and under the same terms, with B24 the figure was 10 fold; with B25, 2 fold; with B26, 4 fold.
Same read-out and setting: with B27 the figure was 9 fold.
Take B28: the Fold Change in Activity of PQ Hydrolysis Relative to Wild Type Kumamolysin-As came to 49 fold.
Same read-out and setting: with B29 the figure was 7 fold.

The next data set concerns the target T3, immunodominant α9-gliadin peptide QLQPFPQPQLPY
T3 chain: QLQPFPQPQLPY
Consider B1, for which the “fraction of immunogenic peptide proteolyzed after 50 minutes (LC-MS, pH 4, 37° C.)” value is listed as “over 95% of the immunogenic peptide had been proteolyzed after a 50 minute incubation” and the “half-life of the peptide in the presence of KumaMax” value stood at 8.5 ± 0.7 min.

In the next data set the target is T4, Suc-APQ-pNA.
T4 chain: APQ
B1: the Catalytic Efficiency (kcat/KM) was determined as 6.7 M⁻¹ s⁻¹.

For the next data set, the target named is T5, Suc-APR-pNA.
T5 chain: APR
B2 came in with a Catalytic Efficiency (kcat/KM) of 132 M⁻¹ s⁻¹.
